Results as given in US20040253243, “Aptamer therapeutics useful in ocular pharmacotherapy” (published 2004).
Like-named read-outs stand apart in the source and are kept apart here.

T1: TGF-beta2 (Rattus, UniProt Q07257 Q07257:331-442)
T1 sequence: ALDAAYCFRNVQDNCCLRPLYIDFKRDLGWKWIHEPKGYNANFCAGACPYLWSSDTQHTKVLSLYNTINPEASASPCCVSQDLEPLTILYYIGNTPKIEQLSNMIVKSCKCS


Assays:
[1] = biological target: T2, PDGF-BB (Homo sapiens, UniProt P01127 P01127:82-190)
[2] = biological target: T3, PDGF-AB (Homo sapiens, UniProt P04085;P01127 P04085:87-211,P01127:82-190)
T3 sequence (P01127 82-190, chain 2 of 2, other chains not shown): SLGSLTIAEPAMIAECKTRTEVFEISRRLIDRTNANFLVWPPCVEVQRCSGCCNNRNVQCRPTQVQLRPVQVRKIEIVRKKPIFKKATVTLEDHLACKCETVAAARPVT

[3] = biological target: T2, PDGF-BB; assay: p237 labels ARC125 as SEQ 16, Table 3 as SEQ 17; details: chain copies: 2 (inferred)
[4] = biological target: T3, PDGF-AB; assay: p237 labels ARC125 as SEQ 16, Table 3 as SEQ 17
[5] = biological target: T1, TGF-beta2; assay: filter; values in figure only; details: chain copies: 2 (inferred)
Description: Dissociation constants for the binding of aptamers to purified human or rodent TGFβ-2 protein were determined by nitrocellulose-filter partitioning using ³²P-labeled RNA. In vitro transcribed RNA was treated with calf-intestinal alkaline phophatase (New England Biolabs) to remove 5′-triphosphates, then radio-labeled by incubation with γ-³²P-ATP and T4 polynucleotide kinase (New England Biolabs). Unincorporated label was removed by gel-filtration, and the RNAs were further purified by polyacrylamide gel electrophoresis (PAGE). Purified ³²P-labeled aptamer in water was refolded just prior to use by heating for 3 min at 95° C., followed by a 10 minute room-temperature incubation in binding buffer (50 mM Hepes, pH 7.4, 1 mM MgCl₂, 1 mM CaCl₂, 3 mM KCl, 140 mM NaCl, 0.1 mg/ml BSA, 0.01 mg/ml tRNA). The binding reactions (100 μL) were initiated by the addition of aptamer (≦0.1 nM) to excess TGFβ-2 protein (0.2-100 nM), followed by 10-30 minute equilibration at room temperature.
Nitrocellulose-filter partitioning was performed on Minifold® I, 96-well Dot-Blot manifolds (Schleicher & Schuell). Protein-bound aptamer and residual free aptamer were captured, respectively, on pre-wetted Protran nitrocellulose (Schleicher & Schuell) and Hybond-P polyvinylidene difluoride (Amersham Biosciences) filters by vacuum aspiration, and quantified by PhosphorImager (Amersham Biosciences). […]

T2 sequence (P01127 82-190, one chain of several): as the sequence (P01127 82-190, chain 2 of 2, other chains not shown) above

Binder	Kd [1]	Kd [2]	Kd [3]	Kd [4]	binding result [5]
TGGGAGGGCGCGTTCTTCGTGGTTACTTTTAGTCCCG (ssDNA, 3'-3'-dT cap) [ARC123]	0.1 nM	0.1 nM	–	–	–
TACTCAGGGCACTGCAAGCAATTGTGGTCCCAATGGGCTGAGTA (ssDNA, 3'-3'-dT cap) [ARC125]	–	–	0.1 nM	0.1 nM	–
GGAGGUUAUUACAGAGUCUGUAUAGCUGUACUCC (ssRNA, 2'-F all C and U, 2'-OH purines, 3'-inverted T (3T)) [ARC77]	–	–	–	–	binds
CACAGGCTACGGCACGTAGAGCATCACCATGATCCTGTG (ssDNA, 3'-3'-dT cap) [ARC124]	0.1 nM	0.1 nM	–	–	–
